This is an account of results in the supplement of paper PMC7877785.

± gives the uncertainty stated by the source.

A short description of this series: self-splicing fitness, log relative to wild type (ln ratio); higher = more splicing; Tetrahymena group I intron in knt gene, E. coli kanamycin selection, DiMSum; sequences stand for … in CUCUCU…GGAGGGAAAAGUUAUCAGGCAUGCACCUGGUAGCUAGUCUUUAAACCAAUAGAUUGCAUCGGUUUAAAAGGCAAGACCGUCAAAUUGCGGGAAAGGGGUCAACAGCCGUUCAGUACCAAGUCUCAGGGGAAACUUUGAGAUGGCCUUGCAAAGGGUAUGGUAAUAAGCUGACGGACAUGGUCCUAACCACGCAGCCAAGUCCUAAGUCAACAGAUCUUCUGUUGAUAUGGAUGCAGUUCACAGACUAAAUGUCGGUCGGGGAAGAUGUAUUCUUCUCAUAAGAUAUAGUCGGACCUCUCCUUAAUGGGAGCUAGCGGAUGAAGUGAUGCAACACUGGAGCCGCUGGGAACUAAUUUGUAUGCGAAAGUAUAUUGAUUAGUUUUGGAGUACUCGUGGUCG
An outline of the steps:
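Library with all eight P1ex-region intron nucleotides randomised, intron inside the knt kanamycin-resistance gene on pET-22b(+), in E. coli BL21(DE3). Cells grew overnight at 37°C or 30°C on LB agar with or without 25 μg/mL kanamycin (plus 100 μg/mL carbenicillin, 50 μM IPTG, 0.2% rhamnose), in six replicate transformations. Pooled colonies were amplicon-sequenced on Illumina HiSeq 2500. DiMSum fitness is the error-weighted combination of wild-type-normalised replicate fold changes, kanamycin versus none.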

As to CUCAAGCAAUAUUACGGAUG, the “self-splicing fitness (ln)” value by setting is: (30 °C) -1.48 ± 0.088; (37 °C) -1.05 ± 0.13. For CAGAAGCAAUAUUACGCCAU the same measures were -2.66 ± 0.14 and -2.77 ± 0.18. On the same counts, the results for GAACAGCAAUAUUACGUUAU are -2.01 ± 0.066 and -1.13 ± 0.077. For UUCAAGCAAUAUUACGCCCA the same measures were -0.837 ± 0.24 and 0.3 ± 0.21. Turning to GCGUAGCAAUAUUACGAAAC, the “self-splicing fitness (ln)” value runs as follows: (30 °C) -0.751 ± 0.25; (37 °C) -0.283 ± 0.4. Regarding UGCAAGCAAUAUUACGAUUU, the “self-splicing fitness (ln)” value is -1.16 ± 0.09 (30 °C) and -1.05 ± 0.1 (37 °C). In the case of UAGAAGCAAUAUUACGCCCU, the “self-splicing fitness (ln)” value is, setting by setting: (30 °C) -0.743 ± 0.19; (37 °C) 0.316 ± 0.22.

For UUGUAGCAAUAUUACGCGGA, the “self-splicing fitness (ln)” value is, setting by setting: (30 °C) -1.43 ± 0.13; (37 °C) -0.3 ± 0.11. On the same counts, the results for GUCGAGCAAUAUUACGCUUA are -1.12 ± 0.13 and -0.065 ± 0.12.

Take GCUGAGCAAUAUUACGAGAC: the “self-splicing fitness (ln)” value is -3.06 ± 0.36 (30 °C) and 0.142 ± 0.23 (37 °C).

For the sequence AAUCAGCAAUAUUACGCCGG, the “self-splicing fitness (ln)” value was -1.15 ± 0.086 (30 °C) and -0.932 ± 0.099 (37 °C). For AAAUAGCAAUAUUACGCCUC, the “self-splicing fitness (ln)” value by setting is: (30 °C) -1.6 ± 0.14; (37 °C) -0.0982 ± 0.17. For the sequence GUUCAGCAAUAUUACGAUUG, the “self-splicing fitness (ln)” value by setting is: (30 °C) -0.497 ± 0.093; (37 °C) -0.904 ± 0.15. On the same counts, the results for CGUGAGCAAUAUUACGAGGG are -3.77 ± 0.3 and -2.36 ± 0.25.

As to GGCAAGCAAUAUUACGGGAU, the “self-splicing fitness (ln)” value is -2.31 ± 0.086 (30 °C) and -0.713 ± 0.089 (37 °C). On the same counts, the results for CACCAGCAAUAUUACGCACC are -3.63 ± 0.47 and -2.31 ± 0.34.

For the sequence UGUGAGCAAUAUUACGCUUU, the “self-splicing fitness (ln)” value runs as follows: (30 °C) -3.5 ± 0.33; (37 °C) -3.83 ± 0.33. In the case of CAUAAGCAAUAUUACGGAUA, the “self-splicing fitness (ln)” value runs as follows: (30 °C) -3.62 ± 0.19; (37 °C) -2.87 ± 0.18. For GCAAAGCAAUAUUACGCUCA the same measures were -0.972 ± 0.13 and -0.0384 ± 0.16. On to AGUCAGCAAUAUUACGAACG, for which the “self-splicing fitness (ln)” value is, setting by setting: (30 °C) 0.155 ± 0.087; (37 °C) 0.717 ± 0.15. As to GGGGAGCAAUAUUACGUAAA, the “self-splicing fitness (ln)” value is -3.12 ± 0.36 (30 °C) and -1.18 ± 0.3 (37 °C). For AAAAAGCAAUAUUACGUGCA the same measures were -0.742 ± 0.056 and -0.201 ± 0.072.

For GUAGAGCAAUAUUACGAAAG, the “self-splicing fitness (ln)” value (30 °C) is -1.56 ± 0.32. As for AUUAAGCAAUAUUACGCAAA, the “self-splicing fitness (ln)” value by setting is: (30 °C) -1.78 ± 0.23; (37 °C) -1.32 ± 0.18. CGAGAGCAAUAUUACGUACU: the “self-splicing fitness (ln)” value (37 °C) was -0.953 ± 0.3. As for AUGGAGCAAUAUUACGACGU, the “self-splicing fitness (ln)” value by setting is: (30 °C) -0.474 ± 0.09; (37 °C) -0.306 ± 0.099. In the case of UGUGAGCAAUAUUACGUGGC, the “self-splicing fitness (ln)” value (37 °C) is -1.97 ± 0.4.

For the sequence GGCCAGCAAUAUUACGACGU, the “self-splicing fitness (ln)” value is, setting by setting: (30 °C) -0.821 ± 0.083; (37 °C) 0.2 ± 0.12. For ACCAAGCAAUAUUACGCUGC the same measures were -1.62 ± 0.063 and -0.906 ± 0.076. For GAUGAGCAAUAUUACGUCCG the same measures were -3.75 ± 0.43 and -2.09 ± 0.32. On the same counts, the results for UAACAGCAAUAUUACGAAAG are -1.44 ± 0.14 and -1.76 ± 0.21. Turning to AACGAGCAAUAUUACGGCCU, the “self-splicing fitness (ln)” value is, setting by setting: (30 °C) -1.16 ± 0.2; (37 °C) -0.95 ± 0.2. On the same counts, the results for AAUCAGCAAUAUUACGGUAU are 0.192 ± 0.063 and 0.705 ± 0.088. Take GCAGAGCAAUAUUACGCUAU: the “self-splicing fitness (ln)” value by setting is: (30 °C) -2.9 ± 0.33; (37 °C) -1.32 ± 0.28. For the sequence GGAUAGCAAUAUUACGGCCU, the “self-splicing fitness (ln)” value is -2.24 ± 0.29 (30 °C) and -0.0501 ± 0.17 (37 °C). AAGGAGCAAUAUUACGAUAA: the “self-splicing fitness (ln)” value by setting is: (30 °C) -3.46 ± 0.25; (37 °C) -1.94 ± 0.18.

As for AGGUAGCAAUAUUACGGGAC, the “self-splicing fitness (ln)” value was -3.462 ± 0.028 (30 °C) and -2.15 ± 0.039 (37 °C). With UAGAAGCAAUAUUACGCGCA, the “self-splicing fitness (ln)” value (30 °C) was -0.327 ± 0.15 and the “self-splicing fitness (ln)” value (37 °C) was 0.03 ± 0.18.

In the case of AAGUAGCAAUAUUACGGAGU, the “self-splicing fitness (ln)” value runs as follows: (30 °C) -2.54 ± 0.2; (37 °C) -1.9 ± 0.22.

CGCAAGCAAUAUUACGCACG: the “self-splicing fitness (ln)” value reads like this: (30 °C) -2.96 ± 0.23; (37 °C) -1.24 ± 0.17. For CGGCAGCAAUAUUACGCUGG the same measures were -3.32 ± 0.16 and -2.23 ± 0.21. Consider AGCAAGCAAUAUUACGCGGU, for which the “self-splicing fitness (ln)” value was -3.33 ± 0.16 (30 °C) and -1.66 ± 0.17 (37 °C). Regarding GACCAGCAAUAUUACGCUAC, where the note is “37 °C”, the “self-splicing fitness (ln)” value was -2.47 ± 0.3.

Consider CAUGAGCAAUAUUACGUGGG, for which the “self-splicing fitness (ln)” value runs as follows: (30 °C) -4.29 ± 0.27; (37 °C) -3.23 ± 0.32. Consider GCAGAGCAAUAUUACGACGA, for which the “self-splicing fitness (ln)” value is, setting by setting: (30 °C) -2.64 ± 0.24; (37 °C) -0.208 ± 0.12.

For GCUCAGCAAUAUUACGUGAU, the “self-splicing fitness (ln)” value (30 °C) was -0.424 ± 0.072 and the “self-splicing fitness (ln)” value (37 °C) is -0.373 ± 0.078. On the same counts, the results for GUCCAGCAAUAUUACGCCGC are -4.18 ± 0.33 and -2.58 ± 0.27. On to CCCGAGCAAUAUUACGCGGC, for which the “self-splicing fitness (ln)” value (30 °C) is -3.67 ± 0.4 and the “self-splicing fitness (ln)” value (37 °C) is -1.88 ± 0.29. In the case of CUCAAGCAAUAUUACGGCGC, the “self-splicing fitness (ln)” value (37 °C) was -0.598 ± 0.19.

GUGCAGCAAUAUUACGCGAU: the “self-splicing fitness (ln)” value runs as follows: (30 °C) -3.78 ± 0.31; (37 °C) -1.45 ± 0.31. UAAGAGCAAUAUUACGCGCG: the “self-splicing fitness (ln)” value was -1.38 ± 0.24 (30 °C) and -1.35 ± 0.3 (37 °C).

Consider GAGAAGCAAUAUUACGUGUU, for which the “self-splicing fitness (ln)” value is, setting by setting: (30 °C) -2.43 ± 0.098; (37 °C) -1.53 ± 0.14. On to AACUAGCAAUAUUACGUAAA, for which the “self-splicing fitness (ln)” value (30 °C) was -1.87 ± 0.11 and the “self-splicing fitness (ln)” value (37 °C) is -1.01 ± 0.11. On the same counts, the results for GUCAAGCAAUAUUACGCAUU are -1.21 ± 0.089 and -1.02 ± 0.13. On to CCCCAGCAAUAUUACGGUUC, for which the “self-splicing fitness (ln)” value (30 °C) is -4.25 ± 0.25 and the “self-splicing fitness (ln)” value (37 °C) was -2.97 ± 0.28.

Turning to CCAGAGCAAUAUUACGGCCG, the “self-splicing fitness (ln)” value by setting is: (30 °C) -1.72 ± 0.16; (37 °C) -0.276 ± 0.31. On the same counts, the results for CAAUAGCAAUAUUACGAGGA are -2.82 ± 0.26 and -2.07 ± 0.27.

ACUGAGCAAUAUUACGGGUU: the “self-splicing fitness (ln)” value by setting is: (30 °C) -2.09 ± 0.1; (37 °C) -3.88 ± 0.28.

Turning to GAAAAGCAAUAUUACGCCGU, the “self-splicing fitness (ln)” value was -1.75 ± 0.097 (30 °C) and -0.396 ± 0.1 (37 °C). As to ACGUAGCAAUAUUACGGUUC, the “self-splicing fitness (ln)” value runs as follows: (30 °C) -3.18 ± 0.17; (37 °C) -2.49 ± 0.31. On the same counts, the results for GCGUAGCAAUAUUACGACCA are -1.52 ± 0.17 and -0.255 ± 0.16. For GAGGAGCAAUAUUACGUAUU the same measures were -3.47 ± 0.32 and 0.0104 ± 0.25. Turning to UCGCAGCAAUAUUACGAUGU, the “self-splicing fitness (ln)” value reads like this: (30 °C) -2.15 ± 0.18; (37 °C) -2.31 ± 0.28. In the case of AACCAGCAAUAUUACGCGAC, the “self-splicing fitness (ln)” value reads like this: (30 °C) -2.27 ± 0.14; (37 °C) -1.2 ± 0.12. For UUUGAGCAAUAUUACGCCAG the same measures were -2.78 ± 0.36 and -2.12 ± 0.47.

Regarding UUAGAGCAAUAUUACGGAAU, the “self-splicing fitness (ln)” value (30 °C) is -3.79 ± 0.29 and the “self-splicing fitness (ln)” value (37 °C) was -2.81 ± 0.25. For UGCUAGCAAUAUUACGAGGC the same measures were -2.55 ± 0.19 and -1.89 ± 0.34. For AUGUAGCAAUAUUACGUCUC, the “self-splicing fitness (ln)” value (37 °C) is -2.4 ± 0.3.

As for AGACAGCAAUAUUACGAAGU, the “self-splicing fitness (ln)” value runs as follows: (30 °C) -3.47 ± 0.14; (37 °C) -2.26 ± 0.15.

In the case of GUAUAGCAAUAUUACGGCUC, the “self-splicing fitness (ln)” value runs as follows: (30 °C) 0.0185 ± 0.15; (37 °C) 0.629 ± 0.15. In the case of AGCAAGCAAUAUUACGAUUG, the “self-splicing fitness (ln)” value was -4.19 ± 0.17 (30 °C) and -1.91 ± 0.11 (37 °C).

For CAAGAGCAAUAUUACGCGAG, the “self-splicing fitness (ln)” value runs as follows: (30 °C) -2.92 ± 0.2; (37 °C) -2.11 ± 0.21. For CGAAAGCAAUAUUACGAUUU the same measures were -2.12 ± 0.09 and -0.815 ± 0.099. On the same counts, the results for UCUAAGCAAUAUUACGUUAC are -2.8 ± 0.18 and -2.09 ± 0.26. Consider CAUAAGCAAUAUUACGGAAC, for which the “self-splicing fitness (ln)” value (37 °C) is -2.26 ± 0.22. As for CGGAAGCAAUAUUACGAACC, the “self-splicing fitness (ln)” value (37 °C) was -1.43 ± 0.41. AAUCAGCAAUAUUACGAUAU: the “self-splicing fitness (ln)” value was found to be 0.477 ± 0.082 (30 °C) and 0.538 ± 0.1 (37 °C).
